Assay results as given in US20170281720A1 (published 2017).
Where “and” joins values, the source holds several entries; their conditions need not be identical. Equal entries are not always repeated. One block for each molecule: values may come before it. Bridges are numbered along the chain shown (N, C = ends). [ ]: non-standard residue; d: D form. The star is where a group is joined. 5‑TAMRA = CN(C)c1ccc2c(-c3ccc(C(=O)*)cc3C(=O)[O-])c3ccc(N(C)C)cc3[o+]c2c1; Palmitoyl = CCCCCCCCCCCCCCCC(=O)*; R8 = C=CCCCCCC[C@@](C)(N)C(=O)O; Cba = N[C@@H](CC1CCC1)C(=O)O; hLeu = CC(C)CC[C@H](N)C(=O)O; S5 = C=CCCC[C@](C)(N)C(=O)O; Nle = CCCC[C@H](N)C(=O)O; βAla = NCCC(=O)O

Columns and labels:
[1] = target: MDM2 (In-house, 41 kD) (UniProt Q00987); assay: competitive fluorescence polarization on MDM2 against FAM-labeled linear peptide; grade, scale in paragraph 462
Sequence of MDM2 (In-house, 41 kD) (UniProt Q00987) (Q00987 1-125 limits assumed): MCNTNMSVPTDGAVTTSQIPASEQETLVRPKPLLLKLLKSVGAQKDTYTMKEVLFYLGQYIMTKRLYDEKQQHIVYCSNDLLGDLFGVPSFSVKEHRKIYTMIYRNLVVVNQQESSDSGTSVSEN

[2] = target: T1, MDMX (In-house, 40 kD) (UniProt O15151); assay: competitive fluorescence polarization on MDMX against FAM-labeled linear peptide; grade, scale in paragraph 462
T1 sequence (looked up): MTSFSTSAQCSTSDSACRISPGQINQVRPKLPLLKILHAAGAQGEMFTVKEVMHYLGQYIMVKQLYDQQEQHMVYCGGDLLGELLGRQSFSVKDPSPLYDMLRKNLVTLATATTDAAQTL

[3] = target: T2, MDMX (In-house, 40 kD) (UniProt O15151 1-120, limits assumed); assay: FP competition on MDMX vs FAM-labeled linear peptide; graded IC50, + = >1000 nM
T2 construct: Construct not described beyond 'In-house, 40 kD'; also called MDM4
T2 sequence (looked up): T1 sequence (looked up)

[4] = target: T2, MDMX (In-house, 40 kD); assay: FP competition on MDMX vs FAM-labeled linear peptide; graded Ki, + = >1000 nM
[5] = target: T3, MDM2 (In-house, 41 kD) (UniProt Q00987 1-125, limits assumed); assay: competitive fluorescence polarization on MDM2 against FAM-labeled linear peptide; grade, scale in paragraph 462
T3 construct: Only 'In-house, 41 kD' is said of the protein used in the fluorescence polarization assays; also called HDM2
T3 sequence (Q00987 1-125 limits assumed): as the sequence (Q00987 1-125 limits assumed) above

[6] = target: T4, MDMX (In-house, 40 kD) (UniProt O15151 1-120, limits assumed); assay: competitive fluorescence polarization on MDMX against FAM-labeled linear peptide; grade, scale in paragraph 462
T4 construct: Only 'In-house, 40 kD' is said of the protein used in the fluorescence polarization assays; also called MDM4
T4 sequence (looked up): T1 sequence (looked up)

[7] = target: T5, MDMX (In-house, 40 kD) (UniProt O15151 1-120, limits assumed); assay: IC50 (MDMX) grade; competitive FP vs FAM-labeled linear peptide; + = >1000 nM
T5 construct: The construct used is unknown; also called MDM4
T5 sequence (looked up): T1 sequence (looked up)

- IC50 [1]: > 10 nM and < 100 nM
- IC50 [2]: > 1000 nM
Molecule: SP753, Ac-tawy$r5nf4CF3e$r511r-NH2 (peptide)

- IC50 [1]: < 10 nM
- IC50 [2]: > 1000 nM
Molecule: SP755, Ac-tawyanf4CF3e$r511r$r5a-NH2 (peptide)

- IC50 [1]: > 100 nM and < 1000 nM
- IC50 [2]: > 1000 nM
Molecule: SP754, Ac-tawya$r5f4CF3ek$r51r-NH2 (peptide)

- IC50 [1]: > 10 nM and < 100 nM
- IC50 [2]: > 1000 nM
Molecule: SP758, Ac-tawya$s8f4CF3e1d1r$r5a-NH2 (peptide)

- IC50 [1]: > 100 nM and < 1000 nM
- IC50 [2]: > 1000 nM
Molecule: SP752, Ac-t$r5wya$r5f4CF3e1d1r-NH2 (peptide)

- IC50 [1]: < 10 nM
- IC50 [2]: > 1000 nM
Molecule: SP757, Ac-tawy$s8nf4CF3ek11$r5a-NH2 (peptide)

- IC50 [1]: > 10 nM and < 100 nM
- IC50 [2]: > 1000 nM
Molecule: SP756, Ac-t$s8wyanf4CF3e$r511r-NH2 (peptide)

- IC50 [3]: > 1000 nM
- Ki [4]: > 1000 nM
B1: SP250, Pam-ETF$r8EYWAQCba$SAA-NH2 (peptide)
peptide: Palmitoyl-ETF[R8]EYWAQ[Cba][S5]SAA-NH2
modifications: staple 4-11

- Ki [5]: ≤ 10 nM
B2: SP612, Ac-LTF$r8EYWACitL$AAAAAa-NH2 (peptide)
peptide: LTFAEYWAXLAAAAAAA
modifications: not fully specified; N-terminal acetyl; $r8 (alpha-Me R8-octenyl-alanine) at 4 crosslinked to $ (alpha-Me S5-pentenyl-alanine) at 11; Cit (citrulline) at 9; D-alanine at 17; C-terminal amide
notes: stapled peptidomimetic macrocycle

- Ki [5]: > 1000 nM
B3: SP595, Ac-LTF$r8EYWAQCba$S-NH2 (peptide)
peptide: Ac-LTF[R8]EYWAQ[Cba][S5]S-NH2
modifications: staple 4-11
notes: as for B2

- Ki [5]: ≤ 10 nM
B4: SP686, 5-TAMRA-BaLTF$r8EYWAQCba$SAA-NH2 (peptide)
peptide: {5‑TAMRA}-[βAla]LTF[R8]EYWAQ[Cba][S5]SAA-NH2
modifications: staple 5-12
SMILES: CC(C)C[C@H](NC(=O)CCNC(=O)c1ccc(-c2c3ccc(N(C)C)cc3[o+]c3cc(N(C)C)ccc23)c(C(=O)[O-])c1)C(=O)N[C@H](C(=O)N[C@@H](Cc1ccccc1)C(=O)N[C@]1(C)CCCCCCC=CCCC[C@@](C)(C(=O)N[C@@H](CO)C(=O)N[C@@H](C)C(=O)N[C@@H](C)C(N)=O)NC(=O)[C@H](CC2CCC2)NC(=O)[C@H](CCC(N)=O)NC(=O)[C@H](C)NC(=O)[C@H](Cc2c[nH]c3ccccc23)NC(=O)[C@H](Cc2ccc(O)cc2)NC(=O)[C@H](CCC(=O)O)NC1=O)[C@@H](C)O
notes: stapled peptidomimetic macrocycle with fluorescent label

- Ki [6]: ≤ 10 nM
- Ki [5]: ≤ 10 nM
B5: SP716, Ac-LTF$r8EYWAQCba$AAA-NH2 (iso2) (peptide)
peptide: Ac-LTF[R8]EYWAQ[Cba][S5]AAA-NH2
modifications: staple 4-11; not fully specified
notes: stapled peptidomimetic macrocycle, isomer iso2

- Ki [5]: ≤ 10 nM
B6: SP433, Ac-LTF$r8EYWCou7QCba$SAA-NH2 (peptide)
peptide: LTFAEYWXQAASAA
modifications: not fully specified; N-terminal acetyl; $r8 (alpha-Me R8-octenyl-alanine) at 4 crosslinked to $ (alpha-Me S5-pentenyl-alanine) at 11; Cou7 at 8 (structure given only as a drawing); Cba (cyclobutyl alanine) at 10; C-terminal amide
notes: as for B2

- IC50 [7]: > 1000 nM
B7: SP323 (peptide)
peptide: Ac-LTF[R8]AYWAQ[hLeu][S5]AA[Nle]AA-NH2
modifications: staple 4-11
notes: Peptidomimetic macrocycle (stapled p53-derived peptide)

- Ki [6]: ≤ 10 nM
- Ki [5]: ≤ 10 nM
B8: SP712, Ac-LTF$r8HYWAQCba$SAA-NH2 (iso2) (peptide)
peptide: Ac-LTF[R8]HYWAQ[Cba][S5]SAA-NH2
modifications: staple 4-11; also: single isomer iso2
notes: as for B5
